Article doi:10.1101/2021.11.29.470334 (bioRxiv, 2021)

Biological target: the molecule itself
Test: cryo-EM structure

B1: Kir6.2 from Mus musculus (mmKir6.2) H175K mutant, as the Kir6.2 subunit of H175K_(cryoEM) (natural protein)
chain: LSRKGIIPEEYVLTRLAEDPAEPRYRTRERRARFVSKKGNCNVAHKNIREQGRFLQDVFTTLVDLKWPHTLLIFTMSFLCSWLLFAMVWWLIAFAHGDLAPGEGTNVPCVTSIHSFSSAFLFSIEVQVTIGFGGRMVTEECPLAILILIVQNIVGLMINAIMLGCIFMKTAQAKRRAETLIFSKHAVITLRHGRLCFMLRVGDLRKSMIISATIHMQVVRKTTSPEGEVVPLHQVDIPMENGVGGNGIFLVAPLIIYHVIDSNSPLYDLAPSDLHHHQDLEIIVILEGVVETTGITTQARTSYLADEILWGQRFVPIVAEEDGRYSVDYSKFGNTIKVPTPLCTARQLDEDRSLLDALTLASSRGPLRKRSVAVAKAKPKFSISPDSLS
binding result: binds
